US20240209078A1
Read-outs that look alike come from different tables or passages of the source. Values belong to the binder of their own block, whether it stands above or below them.

Assays:
[1] = target: human MSLN (mesothelin) (human) (UniProt Q13421); assay: cell-based or functional assay
[2] = target: human MSLN (mesothelin) (human) (UniProt Q13421); assay: cell-based or functional assay; remark: listed apart in the source
human MSLN (human) [3] = target: human MSLN (human) (UniProt Q13421); assay: cell-based or functional assay
human MSLN (human) [4] = target: human MSLN (human) (UniProt Q13421); assay: cell-based affinity, flow cytometry on target-transfected CHO cells, nonlinear regression (one site - specific binding), mean of three measurements

B1: CH3 15-E11 CC×I2L×G4×scFc×G4×MS 15-B12 CC×I2L_GQ (SEQ ID NO 251) (bispecific antibody)
chain: QVQLVQSGAEVKKPGASVKVSCKASGYTFTNYWMNWVRQAPGQCLEWMGNIAYGVKGTNYNQKFQGRVTMTVDTSSSTAYMELSRLRSDDTAVYYCATRYFYVMDYWGQGTLVTVSSGGGGQGGGGQGGGGQDIQMTQSPSSLSASVGDRVTITCRASQDISNYLNWYQQKPGKVPKLLIYYTSRLHSGVPSRFSGSGSGTDFTLTISSLQPEDVATYYCVQYAQFPLTFGCGTKVEIKSGGGGQEVQLVESGGGLVQPGGSLKLSCAASGFTFNKYAMNWVRQAPGKGMEWVARIRSKYNNYATYYADAVKDRFTISRDDSKNTLYLQMNNLKTEDTAVYYCVRAGNFGSSYISYFAYWGQGTLVTVSSGGGGQGGGGQGGGGQQTVVTQEPSLTVSPGGTVTITCGSSTGAVTSGNYPNWIQKKPGQAPRGLIGGTKFLAPGTPARFSGSLEGGKAALTLSGVQPEDEAEYYCVLYYSNRWVFGSGTKLTVLGGGGCPPCPAPELLGGPSVFLFPPKPKDTLMISRTPEVTCVVVDVSHEEPEVKFNWYVDGVEVHNAKTKPCEEQYGSTYRCVSVLTVLHQDWLNGKEYKCKVSNKALPAPIEKTISKAKGQPREPQVYTLPPSREEMTKNQVSLTCLVKGFYPSDIAVEWESNGQPENNYKTTPPVLDSDGSFFLYSKLTVDKSRWQQGNVFSCSVMHEALHNHYTQKSLSLSPGKGGGGQGGGGQGGGGQGGGGQGGGGQGGGGQCPPCPAPELLGGPSVFLFPPKPKDTLMISRTPEVTCVVVDVSHEEPEVKFNWYVDGVEVHNAKTKPCEEQYGSTYRCVSVLTVLHQDWLNGKEYKCKVSNKALPAPIEKTISKAKGQPREPQVYTLPPSREEMTKNQVSLTCLVKGFYPSDIAVEWESNGQPENNYKTTPPVLDSDGSFFLYSKLTVDKSRWQQGNVFSCSVMHEALHNHYTQKSLSLSPGKGGGGQVQLQESGPGLVKPSETLSLTCTVSGGSISSSSYFWGWIRQPPGKCLEWIGNIYYSGSSNYNPSLKSRVTISVDTSKNQFSLKLSSVTAADTAVYYCARLPRGDRDAFDIWGQGTMVTVSSGGGGQGGGGQGGGGQDIVMTQSPSSLSASVGDRVTITCRASQGISNYLAWYQQKPGKVPKLLIYAASTLQSGVPSRFSGSGSGTDFTLTISSLQPEDFATYYCQQSYSTPFTFGCGTKVEIKSGGGGQEVQLVESGGGLVQPGGSLKLSCAASGFTFNKYAMNWVRQAPGKGMEWVARIRSKYNNYATYYADAVKDRFTISRDDSKNTLYLQMNNLKTEDTAVYYCVRAGNFGSSYISYFAYWGQGTLVTVSSGGGGQGGGGQGGGGQQTVVTQEPSLTVSPGGTVTITCGSSTGAVTSGNYPNWIQKKPGQAPRGLIGGTKFLAPGTPARFSGSLEGGKAALTLSGVQPEDEAEYYCVLYYSNRWVFGSGTKLTVL
cytotoxicity EC50, E:T ratio 1:1, GSU KO CDH3 cells [1]: 108 pM | cytotoxicity EC50, E:T ratio 1:2, GSU KO CDH3 cells [1]: 446 pM | cytotoxicity EC50, E:T ratio 10:1, GSU KO CDH3 cells [1]: 39.6 pM | cytotoxicity EC50, GSU KO CDH3 cells [1]: 512 pM | cytotoxicity EC50, HCT 116 KO CDH3 cells [1]: 51.8 pM | cytotoxicity EC50, GSU KO CDH3 cells [2]: 512 pM

fold gap of column 6 (HCT 116 KO CDH3 by Table 46) against double positive cells (human MSLN (human) [3]): 727 fold | Kd (human MSLN (human) [4]): 33800 pM
B2: CH3 15-E11 CC × I2L × G4 × scFc × G4 × MS 15-B12 CC × I2L_GQ (bispecific antibody)
chain: QVQLVQSGAEVKKPGASVKVSCKASGYTFTNYWMNWVRQAPGQCLEWMGNIAYGVKGTNYNQKFQGRVTMTVDTSSSTAYMELSRLRSDDTAVYYCATRYFYVMDYWGQGTLVTVSSGGGGQGGGGQGGGGQDIQMTQSPSSLSASVGDRVTITCRASQDISNYLNWYQQKPGKVPKLLIYYTSRLHSGVPSRFSGSGSGTDFTLTISSLQPEDVATYYCVQYAQFPLTFGCGTKVEIKSGGGGQEVQLVESGGGLVQPGGSLKLSCAASGFTFNKYAMNWVRQAPGKGMEWVARIRSKYNNYATYYADAVKDRFTISRDDSKNTLYLQMNNLKTEDTAVYYCVRAGNFGSSYISYFAYWGQGTLVTVSSGGGGQGGGGQGGGGQQTVVTQEPSLTVSPGGTVTITCGSSTGAVTSGNYPNWIQKKPGQAPRGLIGGTKFLAPGTPARFSGSLEGGKAALTLSGVQPEDEAEYYCVLYYSNRWVFGSGTKLTVLGGGGCPPCPAPELLGGPSVFLFPPKPKDTLMISRTPEVTCVVVDVSHEEPEVKFNWYVDGVEVHNAKTKPCEEQYGSTYRCVSVLTVLHQDWLNGKEYKCKVSNKALPAPIEKTISKAKGQPREPQVYTLPPSREEMTKNQVSLTCLVKGFYPSDIAVEWESNGQPENNYKTTPPVLDSDGSFFLYSKLTVDKSRWQQGNVFSCSVMHEALHNHYTQKSLSLSPGKGGGGQGGGGQGGGGQGGGGQGGGGQGGGGQCPPCPAPELLGGPSVFLFPPKPKDTLMISRTPEVTCVVVDVSHEEPEVKFNWYVDGVEVHNAKTKPCEEQYGSTYRCVSVLTVLHQDWLNGKEYKCKVSNKALPAPIEKTISKAKGQPREPQVYTLPPSREEMTKNQVSLTCLVKGFYPSDIAVEWESNGQPENNYKTTPPVLDSDGSFFLYSKLTVDKSRWQQGNVFSCSVMHEALHNHYTQKSLSLSPGKGGGGQVQLQESGPGLVKPSETLSLTCTVSGGSISSSSYFWGWIRQPPGKCLEWIGNIYYSGSSNYNPSLKSRVTISVDTSKNQFSLKLSSVTAADTAVYYCARLPRGDRDAFDIWGQGTMVTVSSGGGGQGGGGQGGGGQDIVMTQSPSSLSASVGDRVTITCRASQGISNYLAWYQQKPGKVPKLLIYAASTLQSGVPSRFSGSGSGTDFTLTISSLQPEDFATYYCQQSYSTPFTFGCGTKVEIKSGGGGQEVQLVESGGGLVQPGGSLKLSCAASGFTFNKYAMNWVRQAPGKGMEWVARIRSKYNNYATYYADAVKDRFTISRDDSKNTLYLQMNNLKTEDTAVYYCVRAGNFGSSYISYFAYWGQGTLVTVSSGGGGQGGGGQGGGGQQTVVTQEPSLTVSPGGTVTITCGSSTGAVTSGNYPNWIQKKPGQAPRGLIGGTKFLAPGTPARFSGSLEGGKAALTLSGVQPEDEAEYYCVLYYSNRWVFGSGTKLTVL
EC50 (cytotoxicity) on double positive cells; column head printed 'EC50 CHO hu CDH3 (+) & MSLN (+)'; value is that of HCT 116 wt in Table 46 (human MSLN (human) [3]): 0.071 pM | EC50 (cytotoxicity); column head printed 'EC50 CHO hu CDH3 (+)', table title HCT 116; value is that of HCT 116 KO CDH3 in Table 46 (human MSLN (human) [3]): 51.8 pM | EC50 on HCT 116 KO CDH3 (cytotoxicity; cells CDH3-, MSLN+) (human MSLN (human) [3]): 51.8 pM | EC50 on HCT 116 wt (cytotoxicity; cells CDH3+, MSLN+) (human MSLN (human) [3]): 0.07 pM

Kd (human MSLN (human) [4]): 40000 pM
B3: CH3 15-E11_1_VAG_CC × I2L × G4 × scFc × G4 × MS 15-B12 CC × I2L clipopt_DI (bispecific antibody)
chain: QVQLVQSGAEVKKPGASVKVSCKASGYTFTNYWMNWVRQAPGQCLEWMGNIAYGVAGTNYNQKFQGRVTMTVDTSSSTAYMELSRLRSDDTAVYYCATRYFYVMDYWGQGTLVTVSSGGGGQGGGGQGGGGQDIQMTQSPSSLSASVGDRVTITCRASQDISNYLNWYQQKPGKVPKLLIYYTSRLHSGVPSRFSGSGSGTDFTLTISSLQPEDVATYYCVQYAQFPLTFGCGTKVEIKSGGGGQEVQLVESGGGLVQPGGSLKLSCAASGFTFNKYAMNWVRQAPGKGMEWVARIRSKYNNYATYYADAVKDRFTISRDDSKNTLYLQMNNLKTEDTAVYYCVRAGNFGSSYISYFAYWGQGTLVTVSSGGGGQGGGGQGGGGQQTVVTQEPSLTVSPGGTVTITCGSSTGAVTSGNYPNWIQKKPGQAPRGLIGGTKFLAPGTPARFSGSLEGGKAALTLSGVQPEDEAEYYCVLYYSNRWVFGSGTKLTVLGGGGCPPCPAPELLGGPSVFLFPPKPKDTLMISRTPEVTCVVVDVSHEEPEVKFNWYVDGVEVHNAKTKPCEEQYGSTYRCVSVLTVLHQDWLNGKEYKCKVSNKALPAPIEKTISKAKGQPREPQVYTLPPSREEMTKNQVSLTCLVKGFYPSDIAVEWESNGQPENNYKTTPPVLDSDGSFFLYSKLTVDKSRWQQGNVFSCSVMHEALHNHYTQKSLSLSPGKGGGGQGGGGQGGGGQGGGGQGGGGQGGGGQCPPCPAPELLGGPSVFLFPPKPKDTLMISRTPEVTCVVVDVSHEEPEVKFNWYVDGVEVHNAKTKPCEEQYGSTYRCVSVLTVLHQDWLNGKEYKCKVSNKALPAPIEKTISKAKGQPREPQVYTLPPSREEMTKNQVSLTCLVKGFYPSDIAVEWESNGQPENNYKTTPPVLDSDGSFFLYSKLTVDKSRWQQGNVFSCSVMHEALHNHYTQKSLSLSPGKGGGGQVQLQESGPGLVKPSETLSLTCTVSGGSISSSSYFWGWIRQPPGKCLEWIGNIYYSGSSNYNPSLKSRVTISVDTSKNQFSLKLSSVTAADTAVYYCARLPRGDRDAFDIWGQGTMVTVSSGGGGQGGGGQGGGGQDIVMTQSPSSLSASVGDRVTITCRASQGISNYLAWYQQKPGKVPKLLIYAASTLQSGVPSRFSGSGSGTDFTLTISSLQPEDFATYYCQQSYSTPFTFGCGTKVEIKSGGGGQEVQLVESGGGLVQPGGSLKLSCAASGFTFNKYAMNWVRQAPGKGMEWVARIRSKYNNYATYYADAVKDRFTISRDDSKNTLYLQMNNLKTEDTAVYYCVRAGNFGSSYISYFAYWGQGTLVTVSSGGGGQGGGGQGGGGQQTVVTQEPSLTVSPGGTVTITCGSSTGAVTSGNYPNWIQKKPGQAPRGLIGGTKFLAPGTPARFSGSLEGGKAALTLSGVQPEDEAEYYCVLYYSNRWVFGSGTKLTVL

B4: CH3 15-E11 VAG CC×I2L×G4×scFc×MS 15-B12 CC×I2L clipopt ID (SEQ ID NO 434) (bispecific antibody)
chain: QVQLVQSGAEVKKPGASVKVSCKASGYTFTNYWMNWVRQAPGQCLEWMGNIAYGVAGTNYNQKFQGRVTMTVDTSSSTAYMELSRLRSDDTAVYYCATRYFYVMDYWGQGTLVTVSSGGGGQGGGGQGGGGQDIQMTQSPSSLSASVGDRVTITCRASQDISNYLNWYQQKPGKVPKLLIYYTSRLHSGVPSRFSGSGSGTDFTLTISSLQPEDVATYYCVQYAQFPLTFGCGTKVEIKSGGGGQEVQLVESGGGLVQPGGSLKLSCAASGFTFNKYAMNWVRQAPGKGMEWVARIRSKYNNYATYYADAVKDRFTISRDDSKNTLYLQMNNLKTEDTAVYYCVRAGNFGSSYISYFAYWGQGTLVTVSSGGGGQGGGGQGGGGQQTVVTQEPSLTVSPGGTVTITCGSSTGAVTSGNYPNWIQKKPGQAPRGLIGGTKFLAPGTPARFSGSLEGGKAALTLSGVQPEDEAEYYCVLYYSNRWVFGSGTKLTVLGGGGCPPCPAPELLGGPSVFLFPPKPKDTLMISRTPEVTCVVVDVSHEEPEVKFNWYVDGVEVHNAKTKPCEEQYGSTYRCVSVLTVLHQDWLNGKEYKCKVSNKALPAPIEKTISKAKGQPREPQVYTLPPSREEMTKNQVSLTCLVKGFYPSDIAVEWESNGQPENNYKTTPPVLDSDGSFFLYSKLTVDKSRWQQGNVFSCSVMHEALHNHYTQKSLSLSPGKGGGGQGGGGQGGGGQGGGGQGGGGQGGGGQCPPCPAPELLGGPSVFLFPPKPKDTLMISRTPEVTCVVVDVSHEEPEVKFNWYVDGVEVHNAKTKPCEEQYGSTYRCVSVLTVLHQDWLNGKEYKCKVSNKALPAPIEKTISKAKGQPREPQVYTLPPSREEMTKNQVSLTCLVKGFYPSDIAVEWESNGQPENNYKTTPPVLDSDGSFFLYSKLTVDKSRWQQGNVFSCSVMHEALHNHYTQKSLSLSPGKGGGGQVQLQESGPGLVKPSETLSLTCTVSGGSISSSSYFWGWIRQPPGKCLEWIGNIYYSGSSNYNPSLKSRVTISVDTSKNQFSLKLSSVTAADTAVYYCARLPRGDRDAFDIWGQGTMVTVSSGGGGQGGGGQGGGGQDIVMTQSPSSLSASVGDRVTITCRASQGISNYLAWYQQKPGKVPKLLIYAASTLQSGVPSRFSGSGSGTDFTLTISSLQPEDFATYYCQQSYSTPFTFGCGTKVEIKSGGGGQEVQLVESGGGLVQPGGSLKLSCAASGFTFNKYAMNWVRQAPGKGMEWVARIRSKYNNYATYYADAVKDRFTISRDDSKNTLYLQMNNLKTEDTAVYYCVRAGNFGSSYISYFAYWGQGTLVTVSSGGGGQGGGGQGGGGQQTVVTQEPSLTVSPGGTVTITCGSSTGAVTSGNYPNWIQKKPGQAPRGLIGGTKFLAPGTPARFSGSLEGGKAALTLSGVQPEDEAEYYCVLYYSNRWVFGSGTKLTVL
cytotoxicity EC50, GSU KO CDH3 cells [1]: 75.2 pM | cytotoxicity EC50, HCT 116 KO CDH3 cells [1]: 5.9 pM
